Experimental data from publication doi:10.1101/750265.

Target: dominant negative RACB-T20N, split-YFP fusion for BiFC (barley (Hordeum vulgare))
Experiment: split reporter

BiFC signal relative to that with CA RACB: < 10%
Substance: RIPb, full length, split-YFP fusion for BiFC (natural protein)
